The supplement of paper PMC7877785
± gives the uncertainty stated by the source.

Assay: self-splicing fitness, log relative to wild type (ln ratio); higher = more splicing; Tetrahymena group I intron in knt gene, E. coli kanamycin selection, DiMSum; sequences stand for … in CUCUCU…GGAGGGAAAAGUUAUCAGGCAUGCACCUGGUAGCUAGUCUUUAAACCAAUAGAUUGCAUCGGUUUAAAAGGCAAGACCGUCAAAUUGCGGGAAAGGGGUCAACAGCCGUUCAGUACCAAGUCUCAGGGGAAACUUUGAGAUGGCCUUGCAAAGGGUAUGGUAAUAAGCUGACGGACAUGGUCCUAACCACGCAGCCAAGUCCUAAGUCAACAGAUCUUCUGUUGAUAUGGAUGCAGUUCACAGACUAAAUGUCGGUCGGGGAAGAUGUAUUCUUCUCAUAAGAUAUAGUCGGACCUCUCCUUAAUGGGAGCUAGCGGAUGAAGUGAUGCAACACUGGAGCCGCUGGGAACUAAUUUGUAUGCGAAAGUAUAUUGAUUAGUUUUGGAGUACUCGUGGUCG
In short: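 The eight P1ex-region nucleotides of an intron in the knt kanamycin-resistance gene on pET-22b(+) were all randomised and the library put into E. coli BL21(DE3). Six replicate transformations were grown overnight at 37°C or 30°C on LB agar with or without 25 μg/mL kanamycin, together with 100 μg/mL carbenicillin, 50 μM IPTG and 0.2% rhamnose. Colonies were pooled and amplicon-sequenced on an Illumina HiSeq 2500. Fitness from DiMSum is the error-weighted combination of wild-type-normalised replicate fold changes, kanamycin over none.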

Row | Sequence | self-splicing fitness (ln) (30 °C) | self-splicing fitness (ln) (37 °C)
1 | CGCUAGCAAUAUUACGCUCU | -1.58 ± 0.1 | -0.837 ± 0.099
2 | GCUGAGCAAUAUUACGUAUA | -3.69 ± 0.26 | -2.22 ± 0.29
3 | UCUCAGCAAUAUUACGUUCU | -3.49 ± 0.16 | -1.86 ± 0.17
4 | GGUCAGCAAUAUUACGAAUG | -0.0371 ± 0.078 | -0.989 ± 0.1
5 | UUUCAGCAAUAUUACGCCGG | -0.905 ± 0.17 | -1.68 ± 0.25
6 | CCACAGCAAUAUUACGGUCU | -3.44 ± 0.11 | -1.87 ± 0.12
7 | UACGAGCAAUAUUACGUGAC | -4.06 ± 0.33 | -1.76 ± 0.27
8 | AAAGAGCAAUAUUACGUAUG | -3.72 ± 0.25 | -2.06 ± 0.17
9 | CUGGAGCAAUAUUACGACGG | -3.79 ± 0.38 | -3.09 ± 0.43
10 | AUUUAGCAAUAUUACGUUCU | -0.544 ± 0.085 | -0.0441 ± 0.12
11 | UCUAAGCAAUAUUACGUAUU | -3.09 ± 0.2 | -2.16 ± 0.2
12 | UCUCAGCAAUAUUACGGGUU | -2.06 ± 0.081 | -1.27 ± 0.1
13 | AGGUAGCAAUAUUACGUGAU | -2.479 ± 0.016 | -1.53 ± 0.034
14 | CCCGAGCAAUAUUACGAUUC | -4.01 ± 0.3 | -2.13 ± 0.18
15 | GGCAAGCAAUAUUACGGACC | -1.77 ± 0.18 | -0.606 ± 0.2
16 | CUAAAGCAAUAUUACGGCGC | -2.54 ± 0.21 | -2.38 ± 0.45
17 | CGUCAGCAAUAUUACGCCCU | -1.89 ± 0.15 | -0.223 ± 0.23
18 | UACUAGCAAUAUUACGAUGA | -0.469 ± 0.13 | -0.321 ± 0.11
19 | GGGCAGCAAUAUUACGUUUG | -1.17 ± 0.098 | -0.133 ± 0.11
20 | UAGAAGCAAUAUUACGCGGG | -2.4 ± 0.14 | -1.1 ± 0.13
21 | UGGUAGCAAUAUUACGGAGC |  | -0.765 ± 0.31
22 | AUUAAGCAAUAUUACGGGGA | -3.62 ± 0.38 | -1.41 ± 0.18
23 | AGCCAGCAAUAUUACGUGUA | -3.52 ± 0.14 | -1.34 ± 0.11
24 | AACAAGCAAUAUUACGACUA | -0.0433 ± 0.095 | 0.555 ± 0.1
25 | GACUAGCAAUAUUACGGUAC | -2.1 ± 0.2 | -1.2 ± 0.18
26 | UCUAAGCAAUAUUACGUAUA | -2.55 ± 0.17 | -1.45 ± 0.12

Row | Sequence | self-splicing fitness (ln) (30 °C) | self-splicing fitness (ln) (37 °C)
27 | UAUGAGCAAUAUUACGUUGG | -4.07 ± 0.3 | -2.24 ± 0.22
28 | GUGUAGCAAUAUUACGAAUA | -1.91 ± 0.39 | -1.39 ± 0.43
29 | UCCAAGCAAUAUUACGUGAA | -0.666 ± 0.074 | 0.295 ± 0.1
30 | GCCGAGCAAUAUUACGCAGG | -3.43 ± 0.25 | -4.04 ± 0.42
31 | CUCAAGCAAUAUUACGACCU | -2.96 ± 0.15 | -1.34 ± 0.17
32 | GGCCAGCAAUAUUACGUGCA | -0.734 ± 0.078 | -0.196 ± 0.074
33 | UAUGAGCAAUAUUACGAACA | -2.47 ± 0.24 | -0.662 ± 0.14
34 | CAACAGCAAUAUUACGAACU | -3.29 ± 0.15 | -0.988 ± 0.11
35 | GCGGAGCAAUAUUACGGUCC | -2.54 ± 0.39 | 
36 | AAAGAGCAAUAUUACGGUUU | -2.16 ± 0.11 | -1.06 ± 0.12
37 | AUCAAGCAAUAUUACGGUCU | -1.54 ± 0.11 | -0.196 ± 0.095
38 | GUAGAGCAAUAUUACGGUCA | -1.47 ± 0.098 | -0.0887 ± 0.12
39 | UGUCAGCAAUAUUACGUCGG | -1.32 ± 0.078 | -0.266 ± 0.099
40 | CCCGAGCAAUAUUACGCGGU | -3.37 ± 0.16 | -2.7 ± 0.17
41 | AAUCAGCAAUAUUACGCAUG | -0.409 ± 0.038 | 0.349 ± 0.058
42 | CUCCAGCAAUAUUACGCACA | -1.38 ± 0.15 | -2.29 ± 0.27
43 | UGUAAGCAAUAUUACGCUGA | -3.08 ± 0.26 | -1.33 ± 0.16
44 | ACGAAGCAAUAUUACGACUG | -0.657 ± 0.09 | -0.396 ± 0.098
45 | UGACAGCAAUAUUACGAAGC | -3.56 ± 0.37 | -3.61 ± 0.39
46 | UUGGAGCAAUAUUACGACCA | -3.12 ± 0.48 | -1.34 ± 0.35
47 | AAGGAGCAAUAUUACGGGUU | -2.46 ± 0.23 | -2.16 ± 0.28
48 | AACGAGCAAUAUUACGCCGG | -2.42 ± 0.4 | -0.855 ± 0.34
49 | UACAAGCAAUAUUACGCGGU | -3.61 ± 0.16 | -2.61 ± 0.18
50 | UACUAGCAAUAUUACGGUGG | -2.1 ± 0.09 | -1 ± 0.098
51 | CUCUAGCAAUAUUACGCGCG | -3.15 ± 0.27 | -2.86 ± 0.28
52 | GCGUAGCAAUAUUACGACGG | -3.73 ± 0.48 | -2.79 ± 0.43

Row | Sequence | self-splicing fitness (ln) (30 °C) | self-splicing fitness (ln) (37 °C)
53 | CCGGAGCAAUAUUACGGAAA | -1.87 ± 0.18 | -2.41 ± 0.3
54 | CCGAAGCAAUAUUACGGUAC |  | -1.85 ± 0.25
55 | UAAUAGCAAUAUUACGCCAU | -2.36 ± 0.22 | -1.55 ± 0.23
56 | GUGAAGCAAUAUUACGAUUA | 0.198 ± 0.084 | -0.124 ± 0.13
57 | GGAUAGCAAUAUUACGUCUA | -0.367 ± 0.087 | -0.516 ± 0.088
58 | GUAAAGCAAUAUUACGCACG | -0.557 ± 0.067 | -0.242 ± 0.093
59 | GAGCAGCAAUAUUACGUCUU | -3.01 ± 0.19 | -1.23 ± 0.15
60 | AAGAAGCAAUAUUACGGUCG | -0.736 ± 0.073 | -0.121 ± 0.1
61 | GAUCAGCAAUAUUACGCCAA | -1.95 ± 0.15 | -0.747 ± 0.12
62 | CAUCAGCAAUAUUACGCCGC | -3.14 ± 0.36 | 
63 | GCCUAGCAAUAUUACGAUGC | -1.01 ± 0.081 | 0.0478 ± 0.13
64 | AUGAAGCAAUAUUACGCGGU | -2.88 ± 0.24 | -1.71 ± 0.2
65 | GCCUAGCAAUAUUACGAGCG | -1.38 ± 0.1 | 0.0723 ± 0.13
66 | UCCGAGCAAUAUUACGCGCC | -2.88 ± 0.4 | 
67 | AUGUAGCAAUAUUACGUUCA | -0.72 ± 0.075 | -0.276 ± 0.089
68 | UGACAGCAAUAUUACGGCCC | -0.701 ± 0.12 | -0.967 ± 0.18
69 | UCUAAGCAAUAUUACGACCU | -3.7 ± 0.35 | -1.92 ± 0.24
70 | AUCGAGCAAUAUUACGACAA | -2.78 ± 0.18 | -2.2 ± 0.18
71 | UAGCAGCAAUAUUACGCGGU | -4.14 ± 0.22 | -2.49 ± 0.17
72 | GGGUAGCAAUAUUACGCCGG | -4.18 ± 0.39 | -2.03 ± 0.24
73 | CUUAAGCAAUAUUACGGUAA |  | -3.38 ± 0.37
74 | UUUGAGCAAUAUUACGAGAA |  | -2.17 ± 0.46
75 | CUUAAGCAAUAUUACGCACC | -1.86 ± 0.45 | 
76 | GUGUAGCAAUAUUACGGGAA | -2.77 ± 0.19 | -1.74 ± 0.2
77 | UCUCAGCAAUAUUACGGGAU | -4.25 ± 0.27 | -2.87 ± 0.19
